The source of these data is publication PMC5858146.

For assay [1], the target named is Porcine gastric mucin (PGM) (porcine). The assay can be described thus: ITC; ITC-200 at 37 °C, pH 4.5; PGM solution (40 μM) in the 200 μL cell, KTN or KOS solution (1% w/v) in the syringe.
For assay [2] the target is unchanged. The assay can be described thus: ITC; ITC-200 at 37 °C, pH 7.4; PGM solution (40 μM) in the 200 μL cell, KTN or KOS solution (1% w/v) in the syringe.
Assay [3] has the same target. The description is as above. This is another data set of the same source.
Assay [4] has the same target. The assay is described as above. This is another data set of the same source.

keratose (oxidized keratin, KOS): the Ka in assay [1] was 15500 M⁻¹; in assay [2], 4140 M⁻¹; in assay [3], 41400 M⁻¹. The dH in assay [1] is -4.25 kcal/mol; in assay [2], -61.1 kcal/mol; in assay [4] it was 61.1 kcal/mol. Moreover, the stoichiometry N in assay [1] was found to be 1.15; in assay [2], 1.27.
Turning to kerateine (reduced keratin, KTN), in assay [1], the Ka is 398000 M⁻¹, the dH is -2.41 kcal/mol and the stoichiometry N stood at 1.23. In assay [2], this substance returned a Ka of 10700 M⁻¹, a dH of -3.47 kcal/mol and a stoichiometry N of 1.5.
